Test results from PMC10725492 (2023).
No end group written: not given here. *: point of attachment. Palmitoyl = CCCCCCCCCCCCCCCC(=O)*

Target: recombinant APP N-terminal (18-612) fragment (UniProt P05067-4 18-612)
Assay: SPR

recombinant APP N-terminal (18-612) fragment, sequence (P05067 other isoform, or with tags, fused parts or gaps): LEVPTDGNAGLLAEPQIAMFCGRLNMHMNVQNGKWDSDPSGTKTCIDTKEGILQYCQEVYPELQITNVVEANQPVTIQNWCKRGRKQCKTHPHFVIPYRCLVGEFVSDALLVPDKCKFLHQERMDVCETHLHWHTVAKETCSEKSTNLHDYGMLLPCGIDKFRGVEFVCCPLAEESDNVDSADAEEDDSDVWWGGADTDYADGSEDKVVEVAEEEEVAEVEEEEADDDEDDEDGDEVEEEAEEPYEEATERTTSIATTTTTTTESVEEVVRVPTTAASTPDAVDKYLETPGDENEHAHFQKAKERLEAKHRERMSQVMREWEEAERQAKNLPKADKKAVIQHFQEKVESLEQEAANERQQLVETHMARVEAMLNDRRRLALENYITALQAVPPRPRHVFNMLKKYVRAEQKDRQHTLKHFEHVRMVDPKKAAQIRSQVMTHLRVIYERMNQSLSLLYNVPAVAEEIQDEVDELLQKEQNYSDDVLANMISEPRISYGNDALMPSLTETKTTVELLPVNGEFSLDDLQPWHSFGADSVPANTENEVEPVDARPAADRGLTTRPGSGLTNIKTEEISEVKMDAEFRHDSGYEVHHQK

B1: AY51 peptide (peptide)
chain: KKKKKKLKVRLASHLRK(Palmitoyl)ELRKRLLRDA
koff: 0.000356 s⁻¹
